Test results from PMC9321427.

Columns and labels:
β-arrestin1-YFP = β-arrestin1-YFP (UniProt P49407); assay: BRET (PAR2-Rluc8 / β-arrestin1-YFP) in cells; settings: read off a plot

| response (ligand induced ΔBRET) (β-arrestin1-YFP; cells stimulated with GzmK (concentration not given for panel D), parent: est. 0.027) | response (ligand induced ΔBRET) (β-arrestin1-YFP; cells treated with GzmK-AI (inactive GzmK; concentration not given for panel D), parent: est. -0.001) | cleavage product as percent of total peptide by HPLC after 15 h with granzyme (PAR2 peptide 10 (human)) | Molecule |
| --- | --- | --- | --- |
| 0.0038 | -0.0015 |  | PAR2-Rluc8 (protease-activated receptor 2 fused to Renilla luciferase 8), uncleaved as expressed (from UniProt P55085) Arg36Ala |
|  |  | 6.6 % of total | Granzyme A (enzyme) IIGGNEVTPHSRPYMVLLSLDRKTICAGALIAKDWVLTAAHCNLNKRSQVILGAHSITREEPTKQIMLVKKEFPYPCYDPATREGDLKLLQLMEKAKINKYVTILHLPKKGDDVKPGTMCQVAGWGRTHNSASWSDTLREVNITIIDRKVCNDRNHYNFNPVIGMNMVCAGSLRGGRDSCNGDSGSPLLCEGVFRGVTSFGLENKCGDPRGPGVYILLSKKHLNWIIMTIKGAV |
|  |  | 53 % of total | Granzyme K (enzyme) IIGGKEVSPHSRPFMASIQYGGHHVCGGVLIDPQWVLTAAHCQYRFTKGQSPTVVLGAHSLSKNEASKQTLEIKKFIPFSRVTSDPQSNDIMLVKLQTAAKLNKHVKMLHIRSKTSLRSGTKCKVTGWGATDPDSLRPSDTLREVTVTVLSRKLCNSQSYYNGDPFITKDMVCAGDAKGQKDSCKGDSGGPLICKGVFHAIVSGGHECGVATKPGIYTLLTKKYQTWIKSNLVPPHTN |
